# According to publication PMC3258161:
# Target: PL6S* (PvuII-L6-I-SceI* fusion enzyme: wt PvuII fused via linker L6 to I-SceIΔC9,D44N,D145A) (UniProt P03882)
# Assay: AUC
substance,measurement,value
"PL6S* (PvuII-L6-I-SceI* fusion enzyme: wt PvuII fused via linker L6 to I-SceIΔC9,D44N,D145A) (from UniProt P03882 1-226)",stoichiometry N,2
